One molecule from patent US7091173 (MYRIAD GENETICS, dated 2006) can be followed below.

The target in the experiment is T1, FKBP-associated protein FAP48 (FAP48), amino acids 118-418, bait fused to the Gal4 DNA binding domain (human, UniProt P04386 1-147 (Saccharomyces cerevisiae entry)).
T1 construct: range 1-147; Bait of the yeast two-hybrid screen; The coordinates 118-418 are counted on GenBank U73704
Nature of the experiment: yeast two-hybrid; listed as prey of the bait in 'Binding Regions of FAP48 and Its Interacting Partners'; true positive by beta-galactosidase assay. An excerpt: The new construct was selected directly in the yeast strain PNY200 for its ability to drive tryptophane synthesis (genotype of this strain: MATα trp1-901 leu2-3, 112 ura3-52 his3-200 ade2 gal4Δ gal80). In these yeast cells, the bait was produced as a C-terminal fusion protein with the DNA binding domain of the transcription factor Gal4 (amino acids 1 to 147). Prey libraries were transformed into the yeast strain BK100 (genotype of this strain: MATa trp1-901 leu2-3,112 ura3-52 his3-200 gal4Δ gal80 LYS2::GAL-HIS3 GAL2-ADE2 met2::GAL7-lacZ), and selected for the ability to drive leucine synthesis. In these yeast cells, each cDNA was expressed as a fusion protein with the transcription activation domain of the transcription factor Gal4 (amino acids 768 to 881) and a 9 amino acid hemagglutinin epitope tag. PNY200 cells (MATα mating type), expressing the bait, were then mated with BK100 cells (MATa mating type), expressing prey proteins from a prey library. The resulting diploid yeast cells expressing proteins interacting with the bait protein were selected for the ability to synthesize tryptophan, leucine, histidine, and adenine. […]

B1: Dynactin (DCTN1(1278), p150-Glued), amino acids 1063-1205, prey fused to the Gal4 activation domain (other, UniProt P04386 768-881, looked up, not shown: small tags and cut ends)
chain: ANFNQSGNIADSSLSFTFTNSSNGPNLITTQTNSQALSQPIASSNVHDNFMNNEITASKIDDGNNSKPLSPGWTDQTAYNAFGITTGMFNTTTMDDVYNYLFDDEDTPPNPKKEIAGEEQQRGAIPGQAPGSVPGPGLVKDSPLLLQQISAMRLHISQLQHENSILKGAQMKASLASLPPLHVAKLSHEGPGSELPAGALYRKTSQLLETLNQLSTHTHVVDITRTSPAAKSPSAQLMEQVAQLKSLSDTVEKLKDE
notes: range 768-881;range 1063-1205; Prey clone of the yeast two-hybrid screen; Coordinates are counted on the GenBank entry; also called 150 kD dynein-associated polypeptide; DP-150
With B1, the binding result is listed as “binds”.
